Reference: doi:10.1101/2024.03.12.584565 (bioRxiv, 2024)

Legend:
Test in all cases: pull-down
[1] = target: T1, Flag-tagged Pds5b-WT, treated with Nek2a and Cdk1/2-cyclin A2 in vitro (human, UniProt Q9NTI5 1-1447)
T1 sequence: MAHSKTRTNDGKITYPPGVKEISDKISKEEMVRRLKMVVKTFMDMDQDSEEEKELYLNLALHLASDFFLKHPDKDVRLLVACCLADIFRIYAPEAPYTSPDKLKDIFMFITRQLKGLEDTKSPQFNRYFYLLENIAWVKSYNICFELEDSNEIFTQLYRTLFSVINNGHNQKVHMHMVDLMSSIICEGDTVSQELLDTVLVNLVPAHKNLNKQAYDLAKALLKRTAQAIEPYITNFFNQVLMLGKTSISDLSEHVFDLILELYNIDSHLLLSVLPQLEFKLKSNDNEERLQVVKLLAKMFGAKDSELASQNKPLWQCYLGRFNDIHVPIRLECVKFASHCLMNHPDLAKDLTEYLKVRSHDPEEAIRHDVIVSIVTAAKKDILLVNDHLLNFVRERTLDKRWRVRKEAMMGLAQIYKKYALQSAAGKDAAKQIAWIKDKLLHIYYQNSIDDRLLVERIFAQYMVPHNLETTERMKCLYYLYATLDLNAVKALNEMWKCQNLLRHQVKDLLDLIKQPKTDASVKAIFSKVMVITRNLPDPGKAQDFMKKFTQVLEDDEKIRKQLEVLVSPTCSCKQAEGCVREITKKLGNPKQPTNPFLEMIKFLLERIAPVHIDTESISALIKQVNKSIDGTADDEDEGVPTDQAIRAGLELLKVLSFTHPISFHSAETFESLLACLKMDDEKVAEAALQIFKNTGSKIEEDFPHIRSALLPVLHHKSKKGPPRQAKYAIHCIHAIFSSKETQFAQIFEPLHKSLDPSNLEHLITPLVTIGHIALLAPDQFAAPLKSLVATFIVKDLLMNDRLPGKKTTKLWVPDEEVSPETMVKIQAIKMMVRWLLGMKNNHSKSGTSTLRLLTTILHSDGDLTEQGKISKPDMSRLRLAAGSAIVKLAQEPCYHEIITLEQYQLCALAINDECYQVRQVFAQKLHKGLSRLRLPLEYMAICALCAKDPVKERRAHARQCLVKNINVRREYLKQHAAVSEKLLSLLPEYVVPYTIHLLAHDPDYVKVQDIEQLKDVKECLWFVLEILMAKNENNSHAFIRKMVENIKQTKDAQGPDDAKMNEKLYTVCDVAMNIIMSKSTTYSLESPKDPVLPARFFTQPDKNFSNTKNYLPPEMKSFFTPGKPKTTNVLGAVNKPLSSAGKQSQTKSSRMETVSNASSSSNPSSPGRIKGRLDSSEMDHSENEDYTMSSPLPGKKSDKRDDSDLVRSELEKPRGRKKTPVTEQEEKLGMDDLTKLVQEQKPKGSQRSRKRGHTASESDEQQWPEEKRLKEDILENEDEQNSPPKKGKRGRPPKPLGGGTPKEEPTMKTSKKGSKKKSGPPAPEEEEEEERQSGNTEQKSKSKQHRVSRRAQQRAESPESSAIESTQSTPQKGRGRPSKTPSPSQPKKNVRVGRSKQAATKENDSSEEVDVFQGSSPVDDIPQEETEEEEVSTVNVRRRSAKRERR

[2] = target: T2, Flag-tagged Pds5b, co-expressed with Nek2aΔMR (human, UniProt Q9NTI5 1-1447)
T2 sequence: T1 sequence

[3] = target: T3, Flag-tagged Pds5b, co-expressed with Δ86-cyclin A2 (human, UniProt Q9NTI5 1-1447)
T3 sequence: T1 sequence

[4] = target: T4, Flag-tagged Pds5b, co-expressed with Nek2aΔMR and Δ86-cyclin A2 (human, UniProt Q9NTI5 1-1447)
T4 sequence: T1 sequence

[5] = target: T5, Flag-tagged Pds5a (human, UniProt Q29RF7 1-1337)
T5 sequence: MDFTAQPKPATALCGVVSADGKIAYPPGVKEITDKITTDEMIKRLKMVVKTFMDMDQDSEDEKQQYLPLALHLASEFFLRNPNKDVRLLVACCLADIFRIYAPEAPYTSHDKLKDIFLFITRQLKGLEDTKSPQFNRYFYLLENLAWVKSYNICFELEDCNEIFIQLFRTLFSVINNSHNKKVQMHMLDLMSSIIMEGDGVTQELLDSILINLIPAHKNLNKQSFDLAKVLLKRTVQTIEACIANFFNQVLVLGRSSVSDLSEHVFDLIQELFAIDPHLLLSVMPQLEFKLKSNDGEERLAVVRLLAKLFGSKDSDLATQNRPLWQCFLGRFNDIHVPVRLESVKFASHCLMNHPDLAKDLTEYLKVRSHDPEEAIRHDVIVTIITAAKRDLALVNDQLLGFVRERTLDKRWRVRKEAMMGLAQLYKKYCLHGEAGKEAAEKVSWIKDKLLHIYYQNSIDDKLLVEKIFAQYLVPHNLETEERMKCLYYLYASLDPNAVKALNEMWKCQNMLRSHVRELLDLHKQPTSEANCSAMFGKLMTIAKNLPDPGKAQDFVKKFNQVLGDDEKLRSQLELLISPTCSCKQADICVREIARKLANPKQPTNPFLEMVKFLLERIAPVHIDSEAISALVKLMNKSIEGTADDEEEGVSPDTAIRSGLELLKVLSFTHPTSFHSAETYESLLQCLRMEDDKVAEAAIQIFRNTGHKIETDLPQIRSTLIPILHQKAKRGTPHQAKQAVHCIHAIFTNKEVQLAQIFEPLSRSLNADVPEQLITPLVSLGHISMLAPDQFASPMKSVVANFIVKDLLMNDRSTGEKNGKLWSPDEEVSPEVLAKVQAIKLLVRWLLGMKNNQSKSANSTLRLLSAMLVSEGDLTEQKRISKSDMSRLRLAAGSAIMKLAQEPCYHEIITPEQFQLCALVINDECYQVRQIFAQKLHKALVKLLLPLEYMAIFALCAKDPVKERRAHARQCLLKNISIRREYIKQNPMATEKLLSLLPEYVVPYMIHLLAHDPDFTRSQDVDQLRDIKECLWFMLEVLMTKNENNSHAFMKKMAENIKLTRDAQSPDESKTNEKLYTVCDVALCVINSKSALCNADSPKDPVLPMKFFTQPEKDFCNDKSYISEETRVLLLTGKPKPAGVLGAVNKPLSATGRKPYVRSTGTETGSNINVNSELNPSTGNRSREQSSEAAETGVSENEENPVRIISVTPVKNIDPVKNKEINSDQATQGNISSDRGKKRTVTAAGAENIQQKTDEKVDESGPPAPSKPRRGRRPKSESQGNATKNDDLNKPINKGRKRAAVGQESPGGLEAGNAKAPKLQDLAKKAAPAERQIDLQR

binding result [1]: binds
binding result [2]: binds
binding result [3]: binds
binding result [4]: binds
binding result [5]: binds
B1: recombinant human Wapl (natural protein)
chain: MTSRFGKTYSRKGGNGSSKFDEVFSNKRTTLSTKWGETTFMAKLGQKRPNFKPDIQEIPKKPKVEEESTGDPFGFDSDDESLPVSSKNLAQVKCSSYSESSEAAQLEEVTSVLEANSKISHVVVEDTVVSDKCFPLEDTLLGKEKSTNRIVEDDASISSCNKLITSDKVENFHEEHEKNSHHIHKNADDSTKKPNAETTVASEIKETNDTWNSQFGKRPESPSEISPIKGSVRTGLFEWDNDFEDIRSEDCILSLDSDPLLEMKDDDFKNRLENLNEAIEEDIVQSVLRPTNCRTYCRANKTKSSQGASNFDKLMDGTSQALAKANSESSKDGLNQAKKGGVSCGTSFRGTVGRTRDYTVLHPSCLSVCNVTIQDTMERSMDEFTASTPADLGEAGRLRKKADIATSKTTTRFRPSNTKSKKDVKLEFFGFEDHETGGDEGGSGSSNYKIKYFGFDDLSESEDDEDDDCQVERKTSKKRTKTAPSPSLQPPPESNDNSQDSQSGTNNAENLDFTEDLPGVPESVKKPINKQGDKSKENTRKIFSGPKRSPTKAVYNARHWNHPDSEELPGPPVVKPQSVTVRLSSKEPNQKDDGVFKAPAPPSKVIKTVTIPTQPYQDIVTALKCRREDKELYTVVQHVKHFNDVVEFGENQEFTDDIEYLLSGLKSTQPLNTRCLSVISLATKCAMPSFRMHLRAHGMVAMVFKTLDDSQHHQNLSLCTAALMYILSRDRLNMDLDRASLDLMIRLLELEQDASSAKLLNEKDMNKIKEKIRRLCETVHNKHLDLENITTGHLAMETLLSLTSKRAGDWFKEELRLLGGLDHIVDKVKECVDHLSRDEDEEKLVASLWGAERCLRVLESVTVHNPENQSYLIAYKDSQLIVSSAKALQHCEELIQQYNRAEDSICLADSKPLPHQNVTNHVGKAVEDCMRAIIGVLLNLTNDNEWGSTKTGEQDGLIGTALNCVLQVPKYLPQEQRFDIRVLGLGLLINLVEYSARNRHCLVNMETSCSFDSSICSGEGDDSLRIGGQVHAVQALVQLFLERERAAQLAESKTDELIKDAPTTQHDKSGEWQETSGEIQWVSTEKTDGTEEKHKKEEEDEELDLNKALQHAGKHMEDCIVASYTALLLGCLCQESPINVTTVREYLPEGDFSIMTEMLKKFLSFMNLTCAVGTTGQKSISRVIEYLEHC
